Assay results taken from PMC3013631.

Target: Irgb6 (mouse (endogenous in macrophages)) (UniProt Q62293)
Test: co-IP

Sequence of UniProt Q62293 (Q62293 whole entry): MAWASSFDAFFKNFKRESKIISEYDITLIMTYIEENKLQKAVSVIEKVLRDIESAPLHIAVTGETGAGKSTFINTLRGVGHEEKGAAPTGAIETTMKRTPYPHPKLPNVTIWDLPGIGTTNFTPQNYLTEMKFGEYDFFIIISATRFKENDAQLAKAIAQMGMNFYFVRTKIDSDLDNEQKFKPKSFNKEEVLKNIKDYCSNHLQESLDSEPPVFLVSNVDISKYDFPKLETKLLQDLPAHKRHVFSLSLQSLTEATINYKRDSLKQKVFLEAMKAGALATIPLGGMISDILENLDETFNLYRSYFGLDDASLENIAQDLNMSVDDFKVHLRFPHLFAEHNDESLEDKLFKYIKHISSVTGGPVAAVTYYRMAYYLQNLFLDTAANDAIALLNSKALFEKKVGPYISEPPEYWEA

Substance “kinase-dead ROP18 D/A (Ty-tagged; expressed in transgenic type III parasites) (from UniProt Q2PAY2 1-554) (enzyme)” has a fold change of co-precipitated ROP18 against active ROP18 of 3 fold.
